Measurements published in patent US11653679B2, “High-purity steviol glycosides” (PureCircle Sdn Bhd, priority 2014, dated 2023).

Legend:
Type in all cases: biochemical
[1] = Activity for Stevioside to Rebaudioside E conversion with UGTSL, UGTSL2, UGTLB (Examples 28, 32); details: reaction time UGTSL 22 h., UGTSL2 2 h., 600 μL lysate, based on initial concentration of Stevioside
Method: (§1) Activity tests were performed at 3 mL scale with 600 μL of lysate for the transformation of Stevioside using 0.5 mM of substrate, 2.5 mM of UDP-Glucose and 3 mM MgCl2 in 50 mM Sodium Phosphate buffer at pH 7.2. Samples were taken and analyzed by HPLC. HPLC Analysis. The HPLC assay was performed as described in EXAMPLE 20.
as §1, with “HPLC.” for “HPLC. HPLC Analysis.”, “corresponding chromatograms are depicted” for “HPLC assay was performed as described”, “FIG. 63a.” for “EXAMPLE 20.”

[2] = Directed evolution of UGTSL2 round 3, initial rate for Rebaudioside A conversion (Example 53); details: UGTSL2 round 3 clone lysates, 0.5 mM Rebaudioside A, 30° C., pH 7.2; baseline clone UGTSL2 defined as 100%
Method: (§2) In order to measure the activity of the variants for the transformation of Rebaudioside A to Rebaudioside D, 100 μL of fresh lysate was added to a solution of Rebaudioside A (final concentration 0.5 mM), MgCl2 (final concentration 3 mM) and UDP-Glucose (final concentration 2.5 mM) in 50 mM phosphate buffer pH 7.2. The reaction was allowed to run at 30° C. and samples were taken after 2, 4, 6 and 22 h. to determine the initial rates after HPLC analysis (CAD detection) using the analytical method that was described above for the transformation of Rebaudioside A to Rebaudioside D.
(§3) Apart from the new variants for this round, both experiments were also performed with baseline clone, UGTSL2. The initial rates for the conversion of Rebaudioside A or Rebaudioside D for this baseline clone were defined as 100%.
(§4) Activity of each clone was defined as normalized activity compared to baseline clone UGTSL2 whereas specificity of each clone was expressed as the ratio between the initial rates for the conversion of Rebaudioside A and Rebaudioside D.

[3] = Directed evolution of UGTSL2, Rebaudioside A to Rebaudioside D, round 1 (Example 45)
Method: Lysis was performed by addition of Bugbuster® Master mix (Novagen®) to the thawed cells and the lysate was recovered by centrifugation. […]
The reaction was allowed to run at 30° C. and samples were taken after 2, 4, 6 and 22 h. to determine the initial rate by HPLC (CAD detection) using the analytical method that was described above for the transformation of Rebaudioside A to Rebaudioside D. In parallel the experiments were performed with baseline clone, UGTSL2. The initial rate for this baseline clone was defined as 100%. As an indication of the specificity of the clones, Rebaudioside M2 content was determined at 100% UDP-Glucose conversion and Rebaudioside D2 content was determined at 50% UDP-Glucose conversion. Wherein UDP glucose conversion is defined as: ([Reb D]/[Reb A]0)+([Reb D2]/[Reb A]0)+2*([Reb M2]/[Reb A]0).
The normalized initial rate, Rebaudioside M2 content at 100% UDP-glucose conversion and Rebaudioside D2 content at 50% UDP-glucose conversion are depicted in the following table

[4] = Activity for Rebaudioside A to Rebaudioside D conversion with UGTSL2, UGTLB (Examples 30, 32); details: 23 h., 60 μL lysate, based on initial concentration of Rebaudioside A
Method: as §1, with “60” for “600”, “Rebaudioside A” for “Stevioside”, “HPLC.” for “HPLC. HPLC Analysis.”
(§5) Activity tests were performed at 3 mL scale with 600 μL of lysate for the transformation of Rebaudioside A using 0.5 mM of substrate, 2.5 mM of UDP-Glucose and 3 mM MgCl2 in 50 mM Sodium Phosphate buffer at pH 7.2. Samples were taken and analyzed by HPLC. The corresponding chromatogram after 23 h. of reaction is depicted in FIG. 63c.

[5] = Stevioside conversion products with UGTSL, UGTSL2, UGTLB by LCMS (Example 33); details: reaction time UGTSL2 2 hrs, UGTLB 2 hrs, UGTSL 22 hrs
Method: (§6) Conversion of stevioside with UGTSL and UGTSL2 was conducted in similar manner to Example 28, and the conversion of rubusoside with UGTSL and UGTSL2 was conducted similarly to Example 29. Conversions of rubusoside and stevioside with UGTLB was conducted similarly to Example 32.
(§7) The reaction mixtures were analyzed by LCMS to determine all reaction products.

[6] = Directed evolution of UGTSL2 round 3, initial rate for Rebaudioside D conversion (Example 53); details: UGTSL2 round 3 clones; specificity
Method: In parallel 100 μL of fresh lysate was added to a solution of Rebaudioside D (final concentration 0.5 mM), MgCl2 (final concentration 3 mM) and UDP-Glucose (final concentration 2.5 mM) in 50 mM phosphate buffer pH 7.2. The reaction was allowed to run at 30° C. and samples were taken after 2, 4, 6 and 22 h. to determine the initial rates for Rebaudioside D conversion after HPLC analysis (CAD detection).
as §3, §4

[7] = Directed evolution of UGTSL2 round 2, initial rate for Rebaudioside D conversion (Example 48); details: UGTSL2 round 2 clones; specificity
Method: The reaction was allowed to run at 30° C. and samples were taken after 2, 4, 6 and 22 h. to determine the initial rates for Rebaudioside D conversion after HPLC analysis (CAD detection).
(§8) Apart from the new variants, both experiments were also performed with baseline clone, UGTSL2. The initial rates for the conversion of Rebaudioside A or Rebaudioside D for this baseline clone were defined as 100%.
as §4

[8] = Activity for Rubusoside to Rebaudioside E conversion with UGTSL, UGTSL2, UGTLB (Examples 29, 32); details: reaction time UGTSL 45 h., UGTSL2 2 h., 600 μL lysate, based on initial concentration of Rubusoside
Method: as §1, with “Rubusoside” for “Stevioside”, “HPLC.” for “HPLC. HPLC Analysis.”
as §5, with “Rubusoside” for “Rebaudioside A”, “chromatograms are” for “chromatogram after 23 h. of reaction is”, “63b.” for “63c.”

[9] = Rubusoside conversion products with UGTSL, UGTSL2, UGTLB by LCMS (Example 33); details: reaction time UGTSL2 2 hrs, UGTLB 5 hrs, UGTSL 45 hrs
Method: as §6, §7

[10] = Directed evolution of UGTSL2 round 2, initial rate for Rebaudioside A conversion (Example 48); details: UGTSL2 round 2 clone lysates, 0.5 mM Rebaudioside A, 30° C., pH 7.2; baseline clone UGTSL2 defined as 100%
Method: as §2, §8, §4

[11] = Transformation of Rebaudioside D to Rebaudioside M with UGT76G1 (Examples 6, 13), HPLC; details: after 120 h, in-vitro produced UGT76G1, 0.5 mM Rebaudioside D, 30° C.
Method: The total volume of the reaction was 2 mL with the following composition: 50 mM sodium phosphate buffer pH 7.2, 3 mM MgCl2, 3.8 mM UDP-glucose, 0.5 mM Rebaudioside D and 180 μL of in-vitro produced UGT76G1. The reactions were run at 30° C. on an orbitary shaker at 135 rpm. For each sample, 400 μL of reaction mixture was quenched with 40 μL of 2N H2SO4 and 360 μL of 60% MeOH. After centrifugation, the supernatant was analyzed by HPLC (CAD).
(§9) Activity tests were performed on a 5 mL scale with 500 μL of thawed lysate for the transformation of Stevioside to Rebaudioside A and Rebaudioside D to Rebaudioside M using 0.5 mM of substrate, 2.5 mM of UDP-Glucose and 3 mM MgCl2 in 50 mM Sodium Phosphate buffer at pH 7.2. Samples were taken and analyzed by HPLC.

[12] = Transformation of Stevioside to Rebaudioside A with UGT76G1 lysate (Examples 4, 13), HPLC; details: in-vivo produced UGT76G1 thawed lysate, 0.5 mM Stevioside, 30° C., HPLC (CAD)
Method: The total volume of the reaction was 5.0 mL with the following composition: 50 mM sodium phosphate buffer pH 7.2, 3 mM MgCl2, 2.5 mM UDP-glucose, 0.5 mM Stevioside and 500 μl, of UGT76G1 thawed lysate. The reactions were run at 30° C. on an orbitary shaker at 135 rpm. For each sample, 460 μL of the reaction mixture was quenched with 40 μL of 2N H2SO4 and 420 μL of methanol/water (6/4). The samples were immediately centrifuged and kept at 10° C. before analysis by HPLC (CAD).
as §9

[13] = Conversion of Rebaudioside E to Rebaudioside D with UGT76G1 lysate (Example 25); details: UGT76G1 thawed lysate, 0.5 mM Rebaudioside E, pH 7.5, 30° C.
Method: The total volume of the reaction was 5.0 mL with the following composition: 100 mM potassium phosphate buffer pH 7.5, 3 mM MgCl2, 2.5 mM UDP-glucose, 0.5 mM Rebaudioside E and 500 μL of UGT76G1 thawed lysate (UGT76G1 gene was cloned in pET30a+ vector and expressed in E. coli BL21 (DE3)). The reactions were run at 30° C. on an orbitary shaker at 135 rpm. For sampling 300 μL of the reaction mixture was quenched with 30 μL of 2N H2SO4 and 270 μL of methanol/water (6/4). The samples were immediately centrifuged and kept at 10° C. before analysis by HPLC (CAD detection).

[14] = 0.5 mM substrate, 2.5 mM UDP-Glucose, pH 7.2
[15] = UGTSL2 round 1 clones, indication of specificity

B1: UGTSL2: UDP-glucosyltransferase, Solanum lycopersicum, SEQ ID NO:9 (protein, listed as Solanum lycopersicum)
chain: MATNLRVLMFPWLAYGHISPFLNIAKQLADRGFLIYLCSTRINLESIIKKIPEKYADSIHLIELQLPELPELPPHYHTTNGLPPHLNPTLHKALKMSKPNFSRILQNLKPDLLIYDVLQPWAEHVANEQNIPAGKLLTSCAAVFSYFFSFRKNPGVEFPFPAIHLPEVEKVKIREILAKEPEEGGRLDEGNKQMMLMCTSRTIEAKYIDYCTELCNWKVVPVGPPFQDLITNDADNKELIDWLGTKHENSTVFVSFGSEYFLSKEDMEEVAFALELSNVNFIWVARFPKGEERNLEDALPKGFLERIGERGRVLDKFAPQPRILNHPSTGGFISHCGWNSAMESIDFGVPIIAMPIHNDQPINAKLMVELGVAVEIVRDDDGKIHRGEIAETLKSVVTGETGEILRAKVREISKNLKSIRDEEMDAVAEELIQLCRNSNKSK
[1]; 0.5 mM Stevioside
  Rebaudioside E formation: 50%
[1]; [14]
  Stevioside conv. (reaction time): 77% (2 h.)
[2]
  Normalized initial rate for conversion of Rebaudioside A: 100%
[3]; UGTSL2 round 1 clone lysates, 30° C., pH 7.2, HPLC (CAD), baseline clone UGTSL2 defined as 100%
  Normalized initial rate (0-4 h): 100%
[3]; [15]
  Reb D2 content at 50% UDP-Glc conversion: 12.5%
  Reb M2 content at 100% UDP-Glc conversion: 100%
[4]; 0.5 mM Rebaudioside A
  Rebaudioside D formation: 75%
[4]; [14]
  Rebaudioside A conv. (reaction time): 78% (23 h.)
[5]
  LC-MS, peak area ratio (%): Reb D: 1.70%
  LC-MS, peak area ratio (%): Reb E: 42.56%
  LC-MS, peak area ratio (%): Stev: 20.01%
  LC-MS, peak area ratio (%): Unknown peak #1 (MW966) RT = 22.60 min: 4.48%
  LC-MS, peak area ratio (%): Unknown peak #2 (MW966) RT = 26.50 min: 5.56%
  LC-MS, peak area ratio (%): Unknown peak #3 (MW966) RT = 29.50 min: 25.70%
[6]
  Ratio between initial rates for the conversion of Rebaudioside A and Rebaudioside D: 1.67
[7]
  Ratio between initial rates for the conversion of Rebaudioside A and Rebaudioside D: 1.67
[8]; 0.5 mM Rubusoside
  Rebaudioside E formation: 55%
[8]; [14]
  Rubusoside conv. (reaction time): 80% (2 h.)
[9]
  LC-MS, peak area ratio (%): REb E: 52.88%
  LC-MS, peak area ratio (%): Reb D: 6.73%
  LC-MS, peak area ratio (%): Rub: 3.54%
  LC-MS, peak area ratio (%): Stev: 2.12%
  LC-MS, peak area ratio (%): Unknown peak #1 (MW804) RT 30.70 min: 12.02%
  LC-MS, peak area ratio (%): Unknown peak #2 (MW804) RT 49.50 min: 9.94%
  LC-MS, peak area ratio (%): Unknown peak #3 (MW804) RT 50.40 min: 12.77%
[10]
  Normalized initial rate for conversion of Rebaudioside A: 100%

B2: UGT76G1: UDP-glucosyltransferase UGT76G1 [Stevia rebaudiana], Genbank AAR06912.1, SEQ ID NO:11 (protein, listed as Stevia rebaudiana)
chain: MENKTETTVRRRRRIILFPVPFQGHINPILQLANVLYSKGFSITIFHTNFNKPKTSNYPHFTFRFILDNDPQDERISNLPTHGPLAGMRIPIINEHGADELRRELELLMLASEEDEEVSCLITDALWYFAQSVADSLNLRRLVLMTSSLFNFHAHVSLPQFDELGYLDPDDKTRLEEQASGFPMLKVKDIKSAYSNWQILKEILGKMIKQTKASSGVIWNSFKELEESELETVIREIPAPSFLIPLPKHLTASSSSLLDHDRTVFQWLDQQPPSSVLYVSFGSTSEVDEKDFLEIARGLVDSKQSFLWVVRPGFVKGSTWVEPLPDGFLGERGRIVKWVPQQEVLAHGAIGAFWTHSGWNSTLESVCEGVPMIFSDFGLDQPLNARYMSDVLKVGVYLENGWERGEIANAIRRVMVDEEGEYIRQNARVLKQKADVSLMKGGSSYESLESLVSYISSL
[11]
  conversion of rebaudioside D to rebaudioside M: 80%
[12]
  conversion of stevioside to rebaudioside A: almost complete conversion
[13]
  conversion of Rebaudioside E to Rebaudioside D: complete conversion
